Consider 101 substances from the supplement of paper PMC12042874.

± gives the uncertainty stated by the source.

The series can be described thus: amyloid nucleation score (Sup35N fusion, yeast selection) (log enrichment); library NNK2; higher = more nucleation; inactive = no reads after selection. In a few lines: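 The nucleation score is the DiMSum log enrichment of output over input reads, centred on the mode score of non-aggregating sequences. Only sequences with 100 or more input reads were scored, using Illumina sequencing of input and output plasmid inserts. Psi-negative yeast expressing Sup35N fused to peptides of 20 random codons were induced 24 hours with 100 μM copper sulfate and grown 7 days at 30°C on medium lacking adenine and uracil.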
Turning to INGSYSGYLERFGGMLRWMV, the amyloid nucleation score is 0.753 ± 0.52. Next, INIIMFNVFINLEHIYYSVG: 5.79 ± 0.066. In turn, INIMARIWLQSVWLSVGRKS gave an amyloid nucleation score of 0.097 ± 0.79.

In the case of INISCLKVGALSKGTRLFR, the amyloid nucleation score worked out at 2.14 ± 0.068.

INLISSYHFGELTCATSYWR: the amyloid nucleation score was 4.77 ± 0.09.

INLRIVSPIDLIVRWEDPTW: the amyloid nucleation score was -1.44 ± 0.33. With INMGMYDSNVCDA, the amyloid nucleation score is -0.034 ± 0.65. In the case of INPSWVSCVHFM, the amyloid nucleation score was determined as 0.062 ± 0.74. On to INSAGNLPQERTVLGYFHCS, for which the amyloid nucleation score is -1.44 ± 0.62.

As to INSITKSVGGQRGARRY, the amyloid nucleation score was determined as 2.25 ± 0.21.

On to INSLTKAVYYSSHYYPVSLS, for which the amyloid nucleation score result was “inactive”. Regarding INVAQALLSAPA, the amyloid nucleation score was found to be 3.81 ± 0.062. As to IPILSFMRGLALSRSATYMS, the amyloid nucleation score entry is “inactive”.

With IPLVKCRSCRRCNN, the amyloid nucleation score stood at 0.412 ± 0.5. In turn, IPRGLFCLLYNVVKEYFVLR registered an amyloid nucleation score of 0.198 ± 0.4. Take IPVYVAVIVG: the amyloid nucleation score entry was “inactive”.

Turning to IQLIQML, the amyloid nucleation score was 0.27 ± 0.57. The substance IRADIHKLHLTIIYFKPPLV yielded an amyloid nucleation score of -0.47 ± 0.78. With IRCVGRVVFCCNFS, the amyloid nucleation score is 9.965 ± 0.078. Substance IRDRPHWAGGHLGWPYMWS gave an amyloid nucleation score of 4.1 ± 0.1. In the case of IRGSSIEKNRMWHVGLSLTW, the amyloid nucleation score is -0.809 ± 1.1. Turning to IRHNVKRLGATNVW, the amyloid nucleation score is -0.09 ± 0.76. Substance IRSNLTKKHLKIL gave an amyloid nucleation score of -0.994 ± 0.63. Substance IRSRLFFALLCVYS had an amyloid nucleation score of -0.861 ± 0.41. IRTLMYISHSAGGYLL displayed an amyloid nucleation score of -0.576 ± 0.44. Take IRTLSFMIANSAL: the amyloid nucleation score was -1.16 ± 1.1.

In turn, IRYLYAMVLMDVNDGRYYCK came in with an amyloid nucleation score of -1.54 ± 1. Next, ISCGVSLPIANCTMTHIARV: -0.23 ± 0.49; ISCHLFLLALYGWNKCVCSV: 0.114 ± 0.62; ISDAKRNCRCRSLPILIMVW: 0.448 ± 0.24. Turning to ISDRSTHQASVLTFSPPDFY, the amyloid nucleation score entry is “inactive”.

Substance ISDSRLRKCVAPHSRDSGGH came in with an amyloid nucleation score of 1.96 ± 0.19. Turning to ISGAL, the amyloid nucleation score came out at 0.203 ± 0.45.

The substance ISGYRWNHVSTFVGIYRVHS came in with an amyloid nucleation score of 0.98 ± 0.53. As for ISPEYVSTALLTECTWRVLR, the figure is 0.215 ± 0.46. ISPIESSDRMGGCSLRAILP displayed an amyloid nucleation score of -0.66 ± 0.35. As for ISPLLNVYRDYWLYMF, the figure is -1.37 ± 0.75.

On to ISQRNRSIAYYKMSLTRYGF, for which the amyloid nucleation score result was “inactive”. Take ITAGVPVFYL: the amyloid nucleation score is -1.22 ± 1.1.

On to ITCHGVVFSWLTRELLYTGL, for which the amyloid nucleation score was -0.702 ± 0.45. As to ITCIAGWSNLNDYVFYTVAS, the amyloid nucleation score result is “inactive”. For ITDGENSFAFLSNRDSS, the amyloid nucleation score result is “inactive”. ITFKISNGVWYLPKRL showed an amyloid nucleation score of 6.629 ± 0.038. Substance ITGTFF had an amyloid nucleation score of 1.99 ± 0.084. Regarding ITNDLSLYYVARVGRTDYHF, the amyloid nucleation score came to 1.13 ± 0.12. As to ITTAYGGTIEMIRELNVASV, the amyloid nucleation score was 0.42 ± 0.47. Turning to ITVFILDRYFGICV, the amyloid nucleation score result was “inactive”. Next, ITYPVESLYNAWSGGPVTDG: 0.164 ± 0.8; IVDISCI: -0.541 ± 1.

For the substance IVDSFTYTDVSTGSYLFG, the amyloid nucleation score is -1.42 ± 0.75. IVFFTECSYSLFRWIMNNVW had an amyloid nucleation score of -1.4 ± 0.39. On to IVFPDCSRYKKPHFCYEMVI, for which the amyloid nucleation score entry was “inactive”. As for IVGCLGDGVRLL, the figure is -0.563 ± 0.29.

As to IVHWSLHFMRGKSAYYQYVV, the amyloid nucleation score result was “inactive”. IVKPSRKLKTQGCMKFNAWL showed an amyloid nucleation score of -0.284 ± 0.61. IVLQRVGCFKDAGGNRVWEM: the amyloid nucleation score worked out at 0.264 ± 0.45. Next, IVLRFFGFMDHSSYRNLFKE: -0.375 ± 1.1; IVQFYYVMQYRFRYCLDRMH: 1.01 ± 0.34; IVRELAVVLKKFYLFALFLR: -0.882 ± 0.62. IVRQIASFGRIRDRTRDDEW had an amyloid nucleation score of 3.05 ± 0.13. Take IVRWCLLIIIF: the amyloid nucleation score entry was “inactive”. IVSCFTRVN showed an amyloid nucleation score of 5.26 ± 0.059. For the substance IVTINGNN, the amyloid nucleation score is -0.51 ± 0.44. In turn, IVVSRMETSIKTCYFVMFHS registered an amyloid nucleation score of -0.421 ± 0.38. Turning to IWEVNKVIIQYFPIAFKK, the amyloid nucleation score amounted to 5.713 ± 0.05. For IWFGVYIYFVDFRVILNRLL, the amyloid nucleation score entry was “inactive”.

For the substance IWIKNTSLLLLCRLSHCHNI, the amyloid nucleation score entry is “inactive”.

Substance IWLTVVESRFVTGVVGECYW gave an amyloid nucleation score of 0.255 ± 0.45.

In turn, IWRNSANCGASDEAVDSLR displayed an amyloid nucleation score of 0.53 ± 0.56. As for IWSRLVVLRGRAGSDSSKNS, the figure is -0.044 ± 0.5; as for IYAGSSLTLWGDRDNKKCDR, -1.44 ± 1; as for IYCCISEWSNHTWV, 6.175 ± 0.036.

For IYFMFVVYDSIHQE, the amyloid nucleation score turned out to be 1.32 ± 0.2. On to IYHFNFIFNYLMGDPPYRAT, for which the amyloid nucleation score was determined as 7.778 ± 0.04. As for IYIGLCLRDYILDNMALMRQ, the amyloid nucleation score was -0.721 ± 0.32.

In turn, IYLTLNGILAICASRAWAAK had an amyloid nucleation score of 0.094 ± 0.77.

As for IYMGISVCSICYV, the amyloid nucleation score worked out at 6.34 ± 0.071. As for IYNMVSCIIDLCYDKTRHSR, the figure is 3.85 ± 0.12; as for IYPDKSFMALFPMVIDFYTQ, -2.19 ± 0.62. As to IYQPCCCV, the amyloid nucleation score turned out to be 0.76 ± 0.51. In turn, IYRCIYRTPMLLGLYFNGPV returned an amyloid nucleation score of -0.791 ± 0.55.

Regarding IYVRLLDSDTSYWVQFVFLQ, the amyloid nucleation score result is “inactive”. The substance KADLRKHSLDIGSCADGIRI displayed an amyloid nucleation score of 0.416 ± 0.8. KAGVKLSLGNCRYSTL displayed an amyloid nucleation score of 0.527 ± 0.8. Substance KAHIAVDGIMA came in with an amyloid nucleation score of 0.117 ± 0.33. As for KATPFAGTLRVYSTVTYCAI, the amyloid nucleation score is 0.148 ± 1. As for KAWLSSKITKM, the figure is 0.131 ± 1. In turn, KAYLCSFMMCFLL yielded an amyloid nucleation score of 6.803 ± 0.056. In turn, KCLVSMVLMYAVTMIWDAPD displayed an amyloid nucleation score of 1.35 ± 0.3. Substance KCMQLAAFTRLLWTGPSARG had an amyloid nucleation score of 1.85 ± 0.1. The substance KCVLLWWVIKYVCVDTDAAV registered an amyloid nucleation score of -0.174 ± 0.74. In the case of KDDSQLVLRDRPSRLWRLKE, the amyloid nucleation score was 0.804 ± 0.53.

In turn, KDGLTISRIQITLIKRTLVV displayed an amyloid nucleation score of 0.035 ± 0.74. For the substance KDHRSLSGRDMFRGTLVVVM, the amyloid nucleation score came to 0.328 ± 0.19. Turning to KDPLIRDVLDNANQRLVNSV, the amyloid nucleation score entry was “inactive”. Substance KDRSQGKCLLGQQRQ gave an amyloid nucleation score of 0.782 ± 0.15. Regarding KDWRGMEDFMSVFFRSGLGS, the amyloid nucleation score entry was “inactive”. Substance KEPGERRYGTAASMNYTKVD gave an amyloid nucleation score of -0.71 ± 1. Next, KEPYHNYI: 0.179 ± 0.56; KERAYRGNQAKKRLKTALFY: “inactive”. Substance KERLAFCMYGLGVDYVTFGN gave an amyloid nucleation score of 0.497 ± 0.57.
